Source: paper PMC3160658

Experiments:
RAD52 Y104D = target: T1, RAD52 Y104D (Homo sapiens, UniProt P43351 1-418, Y104D); test: EMSA
T1 sequence: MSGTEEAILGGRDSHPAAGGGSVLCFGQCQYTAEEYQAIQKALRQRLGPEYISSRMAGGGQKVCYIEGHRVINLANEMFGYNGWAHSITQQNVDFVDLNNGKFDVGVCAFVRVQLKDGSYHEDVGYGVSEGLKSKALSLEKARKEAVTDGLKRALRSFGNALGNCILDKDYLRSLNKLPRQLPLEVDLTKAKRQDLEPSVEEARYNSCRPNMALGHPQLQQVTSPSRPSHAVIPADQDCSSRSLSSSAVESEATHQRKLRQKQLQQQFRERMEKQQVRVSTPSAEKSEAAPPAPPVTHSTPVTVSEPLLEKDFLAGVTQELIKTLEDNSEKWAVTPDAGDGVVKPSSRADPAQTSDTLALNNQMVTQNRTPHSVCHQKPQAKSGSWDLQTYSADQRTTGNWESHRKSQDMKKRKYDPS

RAD52;RPA = RAD52;RPA (Homo sapiens;human?, UniProt P43351;P27694;P15927;P35244 1-418;1-616;1-270;1-121, |); test: FRET titration
Sequence of RAD52;RPA (P27694 whole entry, chain 2 of 3): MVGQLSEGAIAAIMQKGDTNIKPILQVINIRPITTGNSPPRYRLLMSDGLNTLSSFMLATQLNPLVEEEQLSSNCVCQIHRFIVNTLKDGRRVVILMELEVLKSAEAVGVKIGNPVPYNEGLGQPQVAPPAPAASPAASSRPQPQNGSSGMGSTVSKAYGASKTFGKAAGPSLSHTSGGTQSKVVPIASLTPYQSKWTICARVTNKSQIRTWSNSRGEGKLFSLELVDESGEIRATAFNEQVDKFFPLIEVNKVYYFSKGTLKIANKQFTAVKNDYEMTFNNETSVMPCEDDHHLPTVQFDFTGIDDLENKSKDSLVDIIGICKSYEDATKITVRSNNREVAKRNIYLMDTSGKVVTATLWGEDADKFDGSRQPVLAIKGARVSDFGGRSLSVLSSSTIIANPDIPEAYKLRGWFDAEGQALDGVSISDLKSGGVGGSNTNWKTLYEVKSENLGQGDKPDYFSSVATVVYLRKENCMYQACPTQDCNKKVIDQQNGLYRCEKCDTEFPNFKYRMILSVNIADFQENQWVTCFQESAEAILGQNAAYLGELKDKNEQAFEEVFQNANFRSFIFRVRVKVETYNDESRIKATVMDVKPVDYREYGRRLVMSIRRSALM
Sequence of RAD52;RPA (P15927 whole entry, chain 3 of 3): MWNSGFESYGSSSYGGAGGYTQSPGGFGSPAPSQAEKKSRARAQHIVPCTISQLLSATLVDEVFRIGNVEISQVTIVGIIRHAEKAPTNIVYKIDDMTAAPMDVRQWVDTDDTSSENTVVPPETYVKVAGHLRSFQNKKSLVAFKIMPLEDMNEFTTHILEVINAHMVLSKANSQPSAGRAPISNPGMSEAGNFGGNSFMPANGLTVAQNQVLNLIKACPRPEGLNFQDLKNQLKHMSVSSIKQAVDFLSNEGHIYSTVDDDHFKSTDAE
Sequence of RAD52;RPA (P35244 whole entry, chain 4 of 3): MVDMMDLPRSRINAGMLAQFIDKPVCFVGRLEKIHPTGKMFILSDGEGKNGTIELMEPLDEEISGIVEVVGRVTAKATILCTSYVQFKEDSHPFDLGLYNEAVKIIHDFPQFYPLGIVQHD

Q: Which results are given for TTTTTTTTTTTTTTTTTTTTTTTTTTTTTT (ssDNA) [Cy5-(dT)30-Cy3]?
A: binding result (RAD52 Y104D): binds; binding result (RAD52;RPA): binds
